Laboratory results published in article PMC3388087 (PLoS ONE, 2012).

B1: human DGCR8 heme-binding domain, HBD-His6 (domain or fragment, UniProt Q8WYQ5 276-498, looked up)
chain: DGETSVQPMMTKIKTVLKSRGRPPTEPLPDGWIMTFHNSGVPVYLHRESRVVTWSRPYFLGTGSIRKHDPPLSSIPCLHYKKMKDNEEREQSSDLTPSGDVSPVKPLSRSAELEFPLDEPDSMGADPGPPDEKDPLGAEAAPGALGQVKAKVEVCKDESVDLEEFRSYLEKRFDFEQVTVKKFRTWAERRQFNREMKRKQAESERPILPANQKLITLSVQDAP
notes: Dimer of 54 kDa; also called human HBD; human HBD-His6; not shown: His6, C-terminal, kept

Assays:
[1] = molecular target: bat star (Patiria miniata) DGCR8 heme-binding domain, HBD-His6 (Patiria miniata (bat star)); assay: SEC; size exclusion chromatography, last step of the purification; SEC buffer 400 mM NaCl, 20 mM Tris pH 8.0, 1 mM DTT; elution volumes compared (bat star HBD 13.8 mL; human HBD dimer; human NC9 monomer 2.6 mL later)
[2] = molecular target: the molecule itself; assay: as above

| Molecule | stoichiometry N [1] | stoichiometry N [2] |
| --- | --- | --- |
| bat star (Patiria miniata) DGCR8 heme-binding domain, HBD-His6 (domain or fragment) | 2 |  |
| B1 |  | 2 |
